Key:
[1] = molecular target: T1, recombinant sCD4 comprising the full-length extracellular domain of human CD4 (human, UniProt P01730 26-396); assay: SPR (Biacore), antibody amine-coupled on the chip, human sCD4 as analyte, 25 C, 1:1 Langmuir fit
T1 construct: also called human soluble CD4; human sCD4 protein
Protocol: (§1) Binding affinity analyses were performed with a Biacore T3000 optical biosensor (GE Healthcare, Piscataway, N.J.). Immobilization of ibalizumab and all the glycan variants were performed following the standard amine coupling procedure. Briefly, carboxyl groups on the sensor chip surface were activated by injection of 35 μL of a solution containing 0.2 M N-(3-dimethylaminopropyl)-N-ethylcarbodiimide and 0.05 M Nhydroxysuccinimide at a flow rate of 5 μL/minute. Next, ibalizumab or its mutant variant, at a concentration of 2 μg/mL in 10 mM sodium-acetate buffer, pH 4.5, was allowed to flow over the chip surface at a rate of 10 μL/minute until the desired level of response units of reacted protein (150-200 RU) was achieved. After unreacted protein was washed out, excess active ester groups on the sensor surface were capped by the injection of 35 μL of 1 M ethanolamine, pH 8.0, at a flow rate of 5 μL/minute. As background to correct instrument and buffer artifacts, a reference was generated under the same conditions with omission of the protein ligand. Binding experiments were performed at 25° C. in HBS-EP buffer (0.01 M HEPES, 0.15M NaCl, 3 mM EDTA, 0.005% vol/vol surfactant P20 (GE Healthcare). Binding kinetics were measured by passing various concentrations of analyte (human sCD4 protein) over the chip surface at a flow rate of 30 μL/minute for 3 min. Dissociation of bound analytes was monitored while the surface was washed for 10 min. Remaining analytes were removed at a flow rate of 50 µL/minute with two 30-sec injections of 10 mM glycine-HCl, pH 2.0. For kinetics data analysis, the kinetic parameters were determined by collectively fitting the overlaid sensograms […] using the BIAevaluation 4.1 software to the 1:1 Langmuir binding model.
(§2) We next evaluated the kinetics of binding of these ibalizumab LMs to human soluble CD4 (sCD4) by surface plasmon resonance. In a Biacore assay using sCD4 as the analyte, WT ibalizumab and LMs bound sCD4 with similar binding kinetics.

[2] = molecular target: T1, recombinant sCD4 comprising the …; assay: SPR (Biacore), sCD4 as analyte; member of the six by its KD in Table 1
Protocol: as §1, §2

| Binder | Kd [1] | koff [1] | kon [1] | fold of KD against wild-type ibalizumab [2] |
| --- | --- | --- | --- | --- |
| LM30E, ibalizumab light chain mutant with an N-linked glycosylation site at position 30E (antibody, human IgG1, kappa, V domains shown) VH: QVQLQQSGPEVVKPGASVKMSCKASGYTFTSYVIHWVRQKPGQGLDWIGYINPYNDGTDYDEKFKGKATLTSDTSTSTAYMELSSLRSEDTAVYYCAREKDNYATGAWFAYWGQGTLVTVSS VL: DIVMTQSPDSLAVSLGERVTMNCKSSQSLLYSTNNATYLAWYQQKPGQSPKLLIYWASTRESGVPDRFSGSGSGTDFTLTISSVQAEDVAVYYCQQYYSYRTFGGGTKLEIKR | 1.4 nM | 0.00015 s⁻¹ | 110000 M⁻¹ s⁻¹ | – |
| LM76, ibalizumab light chain mutant with an N-linked glycosylation site at position 76 (antibody, human IgG1, kappa, V domains shown) VH: QVQLQQSGPEVVKPGASVKMSCKASGYTFTSYVIHWVRQKPGQGLDWIGYINPYNDGTDYDEKFKGKATLTSDTSTSTAYMELSSLRSEDTAVYYCAREKDNYATGAWFAYWGQGTLVTVSS VL: DIVMTQSPDSLAVSLGERVTMNCKSSQSLLYSTNQKNYLAWYQQKPGQSPKLLIYWASTRESGVPDRFSGSGSGTDFTLTINATQAEDVAVYYCQQYYSYRTFGGGTKLEIKR | 0.28 nM | 0.00014 s⁻¹ | 500000 M⁻¹ s⁻¹ | ≤ 2 fold |
| LM67, ibalizumab light chain mutant with an N-linked glycosylation site at position 67 (antibody, human IgG1, kappa, V domains shown) VH: QVQLQQSGPEVVKPGASVKMSCKASGYTFTSYVIHWVRQKPGQGLDWIGYINPYNDGTDYDEKFKGKATLTSDTSTSTAYMELSSLRSEDTAVYYCAREKDNYATGAWFAYWGQGTLVTVSS VL: DIVMTQSPDSLAVSLGERVTMNCKSSQSLLYSTNQKNYLAWYQQKPGQSPKLLIYWASTRESGVPDRFSGSGNATDFTLTISSVQAEDVAVYYCQQYYSYRTFGGGTKLEIKR | 0.8 nM | 0.0002 s⁻¹ | 250000 M⁻¹ s⁻¹ | ≤ 2 fold |
| LM65, ibalizumab light chain mutant with an N-linked glycosylation site at position 65 (antibody, human IgG1, kappa, V domains shown) VH: QVQLQQSGPEVVKPGASVKMSCKASGYTFTSYVIHWVRQKPGQGLDWIGYINPYNDGTDYDEKFKGKATLTSDTSTSTAYMELSSLRSEDTAVYYCAREKDNYATGAWFAYWGQGTLVTVSS VL: DIVMTQSPDSLAVSLGERVTMNCKSSQSLLYSTNQKNYLAWYQQKPGQSPKLLIYWASTRESGVPDRFSGNATGTDFTLTISSVQAEDVAVYYCQQYYSYRTFGGGTKLEIKR | 1.5 nM | 0.00049 s⁻¹ | 330000 M⁻¹ s⁻¹ | – |
| LM60, ibalizumab light chain mutant with an N-linked glycosylation site at position 60 (antibody, human IgG1, kappa, V domains shown) VH: QVQLQQSGPEVVKPGASVKMSCKASGYTFTSYVIHWVRQKPGQGLDWIGYINPYNDGTDYDEKFKGKATLTSDTSTSTAYMELSSLRSEDTAVYYCAREKDNYATGAWFAYWGQGTLVTVSS VL: DIVMTQSPDSLAVSLGERVTMNCKSSQSLLYSTNQKNYLAWYQQKPGQSPKLLIYWASTRESGVPNATSGSGSGTDFTLTISSVQAEDVAVYYCQQYYSYRTFGGGTKLEIKR | 0.19 nM | 8.3e-05 s⁻¹ | 440000 M⁻¹ s⁻¹ | ≤ 2 fold |
| LM54, ibalizumab light chain mutant with an N-linked glycosylation site at position 54 (antibody, human IgG1, kappa, V domains shown) VH: QVQLQQSGPEVVKPGASVKMSCKASGYTFTSYVIHWVRQKPGQGLDWIGYINPYNDGTDYDEKFKGKATLTSDTSTSTAYMELSSLRSEDTAVYYCAREKDNYATGAWFAYWGQGTLVTVSS VL: DIVMTQSPDSLAVSLGERVTMNCKSSQSLLYSTNQKNYLAWYQQKPGQSPKLLIYWASTNATGVPDRFSGSGSGTDFTLTISSVQAEDVAVYYCQQYYSYRTFGGGTKLEIKR | 0.73 nM | 0.00027 s⁻¹ | 370000 M⁻¹ s⁻¹ | ≤ 2 fold |
| LM53, ibalizumab light chain mutant with an N-linked glycosylation site at position 53 (antibody, human IgG1, kappa, V domains shown) VH: QVQLQQSGPEVVKPGASVKMSCKASGYTFTSYVIHWVRQKPGQGLDWIGYINPYNDGTDYDEKFKGKATLTSDTSTSTAYMELSSLRSEDTAVYYCAREKDNYATGAWFAYWGQGTLVTVSS VL: DIVMTQSPDSLAVSLGERVTMNCKSSQSLLYSTNQKNYLAWYQQKPGQSPKLLIYWASNATSGVPDRFSGSGSGTDFTLTISSVQAEDVAVYYCQQYYSYRTFGGGTKLEIKR | 0.45 nM | 0.00013 s⁻¹ | 290000 M⁻¹ s⁻¹ | ≤ 2 fold |
| LM52, glycan-modified anti-CD4 IgG1 antibody with an N-linked glycan at light chain position 52 (antibody, V domains shown) VH: QVQLQQSGPEVVKPGASVKMSCKASGYTFTSYVIHWVRQKPGQGLDWIGYINPYNDGTDYDEKFKGKATLTSDTSTSTAYMELSSLRSEDTAVYYCAREKDNYATGAWFAYWGQGTLVTVSS VL: DIVMTQSPDSLAVSLGERVTMNCKSSQSLLYSTNQKNYLAWYQQKPGQSPKLLIYWANSTESGVPDRFSGSGSGTDFTLTISSVQAEDVAVYYCQQYYSYRTFGGGTKLEIKR | 0.35 nM | 0.00016 s⁻¹ | 460000 M⁻¹ s⁻¹ | ≤ 2 fold |
